One molecule from patent publication US20030165995A1 (Takeda / Millennium, published 2003) can be followed below.

Assay [1] deals with T1, human Bonzo with N-terminal hemagglutinin (HA) epitope, expressed on transfected L1.2 cells (Bonzo/L1.2 cells) (human, UniProt O00574 1-342).
T1 construct: also called CXCR6; STRL33
T1 sequence: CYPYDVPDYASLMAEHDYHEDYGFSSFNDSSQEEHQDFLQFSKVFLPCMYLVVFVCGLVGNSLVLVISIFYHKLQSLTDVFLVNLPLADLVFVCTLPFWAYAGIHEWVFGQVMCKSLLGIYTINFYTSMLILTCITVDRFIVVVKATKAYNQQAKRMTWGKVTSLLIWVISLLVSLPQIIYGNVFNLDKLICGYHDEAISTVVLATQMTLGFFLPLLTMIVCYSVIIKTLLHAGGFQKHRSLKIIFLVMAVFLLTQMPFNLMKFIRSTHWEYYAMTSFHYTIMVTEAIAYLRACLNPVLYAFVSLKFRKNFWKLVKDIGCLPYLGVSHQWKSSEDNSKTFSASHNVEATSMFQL
The assay can be described thus: Scatchard analysis of 125I-labeled SExCkine binding to Bonzo/L1.2 cells. As for the experimental part:
(§1) The amount of ¹²⁵I-labeled SExCkine (CXCL16) that bound to Bonzo/L1.2 cells was determined by scintillation counting, and % inhibition of binding (0% inhibition is the amount of binding in the absence of unlabeled SExCkine (CXCL16)) was calculated. […] FIG. 43B depicts the Scatchard analysis of the binding data.
(§2) Exponentially-growing Bonzo/L1.2 transfectants were counted on the day of the assay and were resuspended in binding assay buffer (BAB) (10 mM HEPES/1 mM CaCl₂/5 mM MgCl₂/0.5% BSA/0.05% Na Azide) at a density of 2.5×10⁶ cells/mL. Purified recombinant SExCkine (CXCL16) was labeled with I¹²⁵ using a sodium iodine method (Amersham, Arlington Heights, Ill.) and was diluted to 4 nM in BAB. Cold (unlabeled) SExCkine (in PBS at 5.3 μM) was diluted for competition in BAB to 0.4 nM, 2 nM, 4 nM, 20 nM, 40 nM, and 400 nM. […] For calculation of total I¹²⁵ input, 50 μL of cells was added to 25 μL of I¹²⁵I-labeled SExCkine and 25 μL BAB. All tubes were incubated for 1 hour at room temperature, after which time the cells were spun down at 3500 rpm and washed five times in BAB+0.5 M NaCl. After the final wash, the cell pellet was resuspended in 100 μL of wash buffer and the I¹²⁵ counts were calculated using a Cobra II auto-gamma scintillation counter (Packard, Downers Grove, Ill.) along with the total input sample. Binding data was calculated using a program written in Excel.

In assay [2] the target is T1, human Bonzo with N-terminal …. Kind of assay: competition with 1 nM 125I-labeled SExCkine for binding to Bonzo/L1.2 cells, gamma counting. As to the method: as §1, §2
The target in assay [3] is T2, CCR6 expressed on transfected L1.2 cells (UniProt P51684 1-374, limits assumed).
T2 construct: whole, on cells
T2 sequence (looked up): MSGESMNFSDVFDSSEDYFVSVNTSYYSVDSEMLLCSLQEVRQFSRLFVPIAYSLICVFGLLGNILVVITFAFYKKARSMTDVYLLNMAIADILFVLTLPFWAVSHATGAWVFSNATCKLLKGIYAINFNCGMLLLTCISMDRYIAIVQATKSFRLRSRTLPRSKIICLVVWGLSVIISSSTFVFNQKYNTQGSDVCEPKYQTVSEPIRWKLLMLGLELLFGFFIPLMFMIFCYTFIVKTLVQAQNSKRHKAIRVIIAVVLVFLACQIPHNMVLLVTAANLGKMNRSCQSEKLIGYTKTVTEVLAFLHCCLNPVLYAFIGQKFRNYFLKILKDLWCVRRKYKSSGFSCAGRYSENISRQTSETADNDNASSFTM
The assay can be described thus: 125I-labeled SExCkine binding to receptor transfectants.

In assay [4] the target is T3, CCR7 expressed on transfected L1.2 cells (UniProt P32248 25-378, limits assumed).
T3 construct: whole, on cells
T3 sequence (looked up): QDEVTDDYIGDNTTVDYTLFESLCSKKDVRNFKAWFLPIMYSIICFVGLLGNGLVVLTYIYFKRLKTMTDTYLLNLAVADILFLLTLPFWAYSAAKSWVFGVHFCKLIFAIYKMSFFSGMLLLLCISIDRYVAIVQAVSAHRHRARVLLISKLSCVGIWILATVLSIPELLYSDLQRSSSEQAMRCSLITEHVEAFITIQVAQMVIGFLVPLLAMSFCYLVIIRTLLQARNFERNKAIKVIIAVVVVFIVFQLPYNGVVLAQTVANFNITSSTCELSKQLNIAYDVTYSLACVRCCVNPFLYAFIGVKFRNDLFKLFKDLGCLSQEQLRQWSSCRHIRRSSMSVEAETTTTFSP
The description is as above.

B1: purified recombinant His-tagged SExCkine (entire predicted extracellular domain, amino acid residues 1 to 202 of SEQ ID NO:4) (ligand)
chain: NEGSVTGSCYCGKRISSDSPPSVQFMNRLRKHLRAYHRCLYYTRFQLLSWSVCGGNKDPWVQELMSCLDLKECGHAYSGIVAHQKHLLPTSPPISQASEGASSDIHTPAQMLLSTLQSTQRPTLPVGSLSSDKELTRPNETTIHTAGHSLAVGPEAGENQKQPEKNAGPTART
modifications: heavily glycosylated; iodinated with 125I where used as tracer
notes: Expressed in 293T cells, purified on wheat germ agglutinin and NiNTA; also called purified recombinant SExCkine (CXCL16); recombinant His-tagged SExCkine protein; not shown: C-terminal His tag from the pEF-His vector
The Kd is the concentration at which binding is half-saturated. A low value points to a tighter complex. Broadly, the IC50 is the concentration at which inhibition is half-maximal. The low end stands for greater potency in that assay, the high end for weaker potency in that assay. On to B1, for which, in assay [1], binding was put at a Kd of 1 nM. The same molecule yielded an IC50 in assay [2] of 1 nM. Moreover, the binding result in assay [3] and in assay [4] was “no binding” in each case.
